Experimental data reported in patent US20220127341A1 (HUDSON INSTITUTE OF MEDICAL RESEARCH, published 2022).

Assays:
[1] = biological target: T1, human KRT14 (Keratin, type I cytoskeletal 14) as expressed by human cancer cells and tumour tissue (Homo sapiens (Human), UniProt P02533 1-472); experiment: flow cytometry
T1 construct: whole, on cells; Probed on intact cells (surface-exposed N-terminal portion), on permeabilized cells and in FFPE tissue sections; also called K14; Keratin-14
T1 sequence (looked up): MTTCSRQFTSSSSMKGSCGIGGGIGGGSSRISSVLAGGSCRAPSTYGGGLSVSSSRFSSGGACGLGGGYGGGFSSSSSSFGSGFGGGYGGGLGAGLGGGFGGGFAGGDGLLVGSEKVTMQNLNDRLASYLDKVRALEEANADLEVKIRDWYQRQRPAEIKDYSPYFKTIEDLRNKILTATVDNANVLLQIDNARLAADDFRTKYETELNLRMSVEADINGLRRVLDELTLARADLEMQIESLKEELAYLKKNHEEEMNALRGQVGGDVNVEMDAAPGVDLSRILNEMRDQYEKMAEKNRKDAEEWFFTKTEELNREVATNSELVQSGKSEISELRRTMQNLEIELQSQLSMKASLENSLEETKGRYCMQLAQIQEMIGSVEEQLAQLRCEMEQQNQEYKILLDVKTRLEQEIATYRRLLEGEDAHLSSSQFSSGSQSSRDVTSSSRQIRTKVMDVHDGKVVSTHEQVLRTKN
Experimental: OVCAR3, CAOV4, ID8 and the patient-derived 3.1937-07 cell lines were analysed on a BD LSRFortessa X-20 (BD Biosciences) flow cytometer for KRT14+ cell populations, using mAb AN-17 or a commercially available polyclonal antibody to KRT14 (Sigma SAB4501657).
(§1) Flow cytometry was carried out according to standard protocols (PMID: 30602661), with data acquired using a BD LSRFortessa X-20 (BD Biosciences) and analysed using FlowJo software v10.5.0 (BD Biosciences). Samples assessed for KRT14+ cell populations included OVCAR3, CAOV4, ID8 mouse ovarian cancer cells, ascites-derived ovarian cancer cells derived from a clinical specimen (designated #3.1937-07) and cardiac blood from a mice bearing 12-week old epithelial ovarian tumours. For cell lines, 1×10⁶ cells per cell line were incubated with either mAb AN-17 (1:200 dilution) or a commercially available anti-KRT14 polyclonal antibody (Sigma SAB4501657; 1:50 dilution) as a positive control for 45 mins in non-immune serum at room temperature. The secondary antibodies, goat anti-mouse Alexa647 (mAb AN-17) or goat anti-rabbit IgG Alexa 488 (commercial Ab), were diluted 1:500 and incubated for 30 minutes. For blood samples. 2×10⁶ cells were incubated with an Alexa Fluor® 488-conjugated mAb AN-17 antibody for 45 minutes. […]

[2] = biological target: T2, mouse KRT14 (Keratin, type I cytoskeletal 14) as expressed by murine ID8 ovarian cancer cells (Mus musculus (Mouse), UniProt Q61781 1-484); experiment: flow cytometry of cardiac blood stained with anti-CD45 and mAb AN-17
T2 construct: whole, on cells; also called non-human protein
T2 sequence (looked up): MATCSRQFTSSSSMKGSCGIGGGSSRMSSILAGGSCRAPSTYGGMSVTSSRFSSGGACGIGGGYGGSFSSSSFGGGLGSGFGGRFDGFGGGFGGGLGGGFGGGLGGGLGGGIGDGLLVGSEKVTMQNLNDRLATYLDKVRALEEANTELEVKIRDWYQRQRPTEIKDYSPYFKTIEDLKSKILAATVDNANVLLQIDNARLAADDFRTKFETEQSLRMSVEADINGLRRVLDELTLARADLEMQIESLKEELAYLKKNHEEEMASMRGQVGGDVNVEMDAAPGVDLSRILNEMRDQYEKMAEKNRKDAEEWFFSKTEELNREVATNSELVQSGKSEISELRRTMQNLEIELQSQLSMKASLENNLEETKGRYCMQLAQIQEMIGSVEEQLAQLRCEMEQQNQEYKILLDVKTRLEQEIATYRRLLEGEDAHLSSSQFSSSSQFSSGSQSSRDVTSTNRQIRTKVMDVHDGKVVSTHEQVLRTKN
Experimental: Cardiac blood was taken from mice bearing 12-week old ID8 iRFP720+ epithelial ovarian tumours and stained using anti-CD45 and mAb AN-17. Circulating ID8 tumour cells were identified as KRT14+CD45− cells and confirmed by iRFP720+ status. iRFP720+ID8 cells spiked into blood was used as a positive control.
as §1

binding result [1]: binds
binding result [2]: binds
B1: monoclonal anti-KRT14 antibody AN-17 (antibody, V domains shown)
VH: QVQLKESGPGLVAPSQSLSITCTVSGFSLSRYSVHWVRQPPGKGLEWLGMIWGGGSTDYNSALKSRLSISKDNSKSQVFLKMNSLQTDDTAMYYCARKDYGYSYFDYWGQGTTLTVSS
VL: DVLMTQTPLSLPVSLGDQASISCRSSQSIVHSNGNTYLEWYLQKPGQSPKLLIYKVSNRFSGVPDRFSGSGSGTDFTLKISRVEAEDLGVYYCFQGSHVPFTFGSGTKLEIKR
notes: the isotype-matched control used is mouse IgG1 kappa; Some assays used it conjugated to Alexa Fluor 488 or Alexa-647; also called mAb AN-17; mAb AN17
